# Reference: patent US8815528B2, “Methods and systems for detecting MHC class I binding peptides” (Beckman Coulter, Inc., priority 2002, dated 2014)
# Tests used:
# [1] = target: HLA-A2m monomer in ternary complex with binding peptide Mart-1 26-35L (human); assay: fluorimetric plate assay, avidin-coated plate, 40 min at room temperature; 0.5 µg/ml antibody, 0.5 µg/ml monomer
# [2] = target: HLA-A2m monomer in ternary complex with binding peptide Mart-1 26-35L (human); assay: fluorimetric plate assay, avidin-coated plate, 40 min at room temperature; 1 µg/ml antibody, 0.5 µg/ml monomer
# [3] = target: STREPTACTIN® (mutated streptavidin molecule) (Streptomyces avidinii, UniProt P22629, E68V/S69T/V71R); settings: biotin-binding site of STREPTACTIN; read-out: binding affinity (Kd); cited from earlier work
# STREPTACTIN® (mutated streptavidin molecule), sequence (P22629 38-163 E68V/S69T/V71R): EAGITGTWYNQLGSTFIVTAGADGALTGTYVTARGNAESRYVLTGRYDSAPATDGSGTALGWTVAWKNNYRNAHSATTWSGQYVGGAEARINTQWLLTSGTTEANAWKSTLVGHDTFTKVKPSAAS
Substance,Fluorescence units (FU) [1] [FU],Fluorescence units (FU) [2] [FU],Kd [3] [µM]
Anti-HLA-class I monoclonal antibody conjugated to FITC (clone: B9.12.1),300,600,–
short peptide sequence binding the biotin-binding site of a mutated streptavidin molecule (STREPTACTIN) [streptagII],–,–,~1
